Assay results taken from US20240247080A1, “GLP1/GIP/NPY2 RECEPTOR TRIPLE AGONISTS” (Boehringer Ingelheim International GmbH, priority 2022, published 2024).
Positions count from the first letter of the chain named. Where two headings read alike, the source gives them in different places. Starred links: 1 amine or outer side, 2 acyl side, 3 side chain; linkers in the order of their positions; H or OH if unused. Non-standard residues stand in square brackets, D forms with d. Groups on a side chain read outwards from the residue. No end group written: not given here. *: point of attachment. C20 diacid = O=C(O)CCCCCCCCCCCCCCCCCCC(=O)*; C18 diacid = O=C(O)CCCCCCCCCCCCCCCCC(=O)*; γGlu = O=C(O)[C@H](CCC(=O)[*:2])N[*:1]; εLys = N[C@@H](CCCCN[*:1])C(=O)[*:2]; AEEA = NCCOCCOCC(=O)O; Aib = CC(C)(N)C(=O)O; Ahx = NCCCCCC(=O)O

T1: hNPY2R (Homo sapiens, UniProt P49146)
T1 construct: expressed in transfected cells; host or cells: HEK-293 cells carrying a CRE-luciferase reporter gene
T1 sequence (P49146 1-381): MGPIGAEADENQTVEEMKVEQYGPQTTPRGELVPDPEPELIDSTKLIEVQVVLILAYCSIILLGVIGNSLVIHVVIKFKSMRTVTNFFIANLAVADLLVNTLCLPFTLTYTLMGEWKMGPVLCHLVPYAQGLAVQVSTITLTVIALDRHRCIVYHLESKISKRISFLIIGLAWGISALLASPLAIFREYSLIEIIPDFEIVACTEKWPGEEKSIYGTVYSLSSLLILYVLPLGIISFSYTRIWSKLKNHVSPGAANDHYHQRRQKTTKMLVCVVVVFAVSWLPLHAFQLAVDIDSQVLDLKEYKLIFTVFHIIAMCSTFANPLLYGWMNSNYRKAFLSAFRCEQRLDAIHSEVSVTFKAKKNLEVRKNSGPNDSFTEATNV

T2: hGIPR (Homo sapiens, UniProt P48546)
T2 construct: expressed in transfected cells; host or cells: CHO cells carrying a CRE-luciferase reporter gene
T2 sequence (P48546 22-466): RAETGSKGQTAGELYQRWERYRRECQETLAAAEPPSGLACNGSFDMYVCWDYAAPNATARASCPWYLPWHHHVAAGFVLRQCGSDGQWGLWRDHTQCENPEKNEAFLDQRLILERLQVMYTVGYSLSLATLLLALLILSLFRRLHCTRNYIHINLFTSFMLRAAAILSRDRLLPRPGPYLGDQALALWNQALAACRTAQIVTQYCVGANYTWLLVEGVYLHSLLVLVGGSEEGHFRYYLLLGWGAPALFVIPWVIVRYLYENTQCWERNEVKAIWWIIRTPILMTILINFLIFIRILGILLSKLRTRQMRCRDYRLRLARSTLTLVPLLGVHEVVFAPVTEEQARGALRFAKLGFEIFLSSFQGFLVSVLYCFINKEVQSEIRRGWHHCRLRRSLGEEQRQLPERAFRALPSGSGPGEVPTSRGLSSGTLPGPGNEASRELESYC

T3: human GIP receptor (human, UniProt P48546 22-466)
T3 sequence (looked up): T2 sequence (P48546 22-466)

T4: human neuropeptide Y2 receptor (human, UniProt P49146 1-381)
T4 sequence (looked up): T1 sequence (P49146 1-381)

B1: Compound 170 (peptide)
peptide: YXEGTFTSDYSIXLEKQAQXAFVQWLIKGGPSSGASLRHYYNWLTRQRY
modifications: Aib at 2, 13, 20; K28 side chain: C18DA-gGlu-gGlu-gGlu-gGlu-gGlu-gGlu-eLys; C-terminal NH2
B2: Compound 172 (peptide)
peptide: B1 peptide with Y10L, Q24E
modifications: Aib at 2, 13, 20; K28 side chain: C20DA-gGlu-gGlu-gGlu-gGlu-gGlu-gGlu-eLys; C-terminal NH2
B3: Compound 89 (peptide)
peptide: B1 peptide with S32E, S33E
modifications: Aib at 2, 13, 20; K28 side chain: C20DA-gGlu-gGlu-gGlu-gGlu-gGlu-gGlu-eLys; C-terminal NH2
B4: Compound 90 (peptide)
peptide: B1 peptide with K16D, Q24E
modifications: Aib at 2, 13, 20; K28 side chain: C20DA-gGlu-gGlu-gGlu-gGlu-gGlu-gGlu-eLys; C-terminal NH2
B5: Compound 91 (peptide)
peptide: B1 peptide with Q24E, S36T
modifications: Aib at 2, 13, 20; K28 side chain: C20DA-gGlu-gGlu-gGlu-gGlu-gGlu-gGlu-eLys; C-terminal NH2
B6: Compound 93 (peptide)
peptide: B1 peptide with Q24E, S33E, G34Y, A35E
modifications: Aib at 2, 13, 20; K28 side chain: C20DA-gGlu-gGlu-gGlu-gGlu-gGlu-gGlu-eLys; C-terminal NH2
B7: Compound 94 (peptide)
peptide: B1 peptide with Q24E, A35I
modifications: Aib at 2, 13, 20; K28 side chain: C20DA-gGlu-gGlu-gGlu-gGlu-gGlu-gGlu-eLys; C-terminal NH2
B8: Compound 95 (peptide)
peptide: B1 peptide with Q24E, G34P
modifications: Aib at 2, 13, 20; K28 side chain: C20DA-gGlu-gGlu-gGlu-gGlu-gGlu-gGlu-eLys; C-terminal NH2
B9: Compound 96 (peptide)
peptide: B1 peptide with Q24E, A35V
modifications: Aib at 2, 13, 20; K28 side chain: C20DA-gGlu-gGlu-gGlu-gGlu-gGlu-gGlu-eLys; C-terminal NH2

Tests used:
[1] = target: T1, hNPY2R; assay: hNPY2R CreLuc reporter gene assay in 0.5% and 100% plasma; assay type: cell-based; details: CreLuc reporter gene assay
In short: (§1)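 HEK cells (GLP-1R, NPY2R) or CHO cells (GIPR) carrying a CRE-luciferase reporter, incubated 4 h at 37 °C with peptides in HBSS/20 mM HEPES pH 7.4 plus 0.5% human plasma, or in 100% plasma. Luminescence read; EC50 from 8-point variable-slope sigmoid fits.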

[2] = target: T5, hGLP1R (Homo sapiens, UniProt P43220); assay: hGLP1R CreLuc reporter gene assay in 0.5% and 100% plasma; assay type: cell-based; details: CreLuc reporter gene assay
T5 construct: expressed in transfected cells; host or cells: HEK-293 cells carrying a CRE-luciferase reporter gene
T5 sequence (P43220 24-463): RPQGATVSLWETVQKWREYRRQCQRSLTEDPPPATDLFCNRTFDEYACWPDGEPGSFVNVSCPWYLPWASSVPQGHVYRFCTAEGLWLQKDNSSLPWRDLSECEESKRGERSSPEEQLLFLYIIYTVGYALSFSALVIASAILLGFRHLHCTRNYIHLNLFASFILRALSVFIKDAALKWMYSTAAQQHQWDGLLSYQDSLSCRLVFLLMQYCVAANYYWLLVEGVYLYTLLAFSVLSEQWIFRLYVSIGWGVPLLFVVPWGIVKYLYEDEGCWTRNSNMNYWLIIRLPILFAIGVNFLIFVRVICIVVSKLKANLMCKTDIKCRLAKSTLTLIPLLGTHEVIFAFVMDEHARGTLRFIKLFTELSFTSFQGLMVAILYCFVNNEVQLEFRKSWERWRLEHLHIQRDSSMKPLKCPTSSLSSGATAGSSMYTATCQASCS
In short: as §1

[3] = target: T2, hGIPR; assay: hGIPR CreLuc reporter gene assay in 0.5% and 100% plasma; assay type: cell-based; details: CreLuc reporter gene assay
In short: as §1

[4] = target: T3, human GIP receptor; assay: cell-based or functional assay
[5] = target: human GLP-1 receptor (human, UniProt P43220 24-463); assay: cell-based or functional assay
[6] = target: T4, human neuropeptide Y2 receptor; assay: cell-based or functional assay
[7] = 0.5% human plasma, read-out: hNPY2R 0.5% hP
[8] = 0.5% human plasma, read-out: hGLP1R 0.5% hP
[9] = 100% human plasma, read-out: hGLP1R 100% hP
[10] = 0.5% human plasma, read-out: hGIPR 0.5% hP
[11] = 100% human plasma, read-out: hGIPR 100% hP

Molecule | EC50 [1, 7] | EC50 [2, 8] | EC50 [2, 9] | EC50 [3, 10] | EC50 [3, 11] | EC50 ([1]; 100% human plasma, read-out: hNPY2R 100% hP) | EC50 CreLuc hGIPR 0.5% hP [4] | EC50 CreLuc hGIPR 100% hP [4] | EC50 CreLuc hGLP1R 0.5% hP [5] | EC50 CreLuc hGLP1R 100% hP [5] | EC50 CreLuc hNPY2R 0.5% hP [6] | EC50 CreLuc hNPY2R 100% hP [6]
H-Y[Aib]EGTFTSDYSI[Aib]LEKQAQ[Aib]AFVEWLIK([AEEA-AEEA-γGlu-γGlu-γGlu-C18 diacid])GGPESGASLRHYYNWLTRQRY-NH2 [Compound 166, Y-Aib-E-G-T-F-T-S-D-Y-S-I-Aib-L-E-K-Q-A-Q-Aib-A-F-V-E-W-L-I-K(1,3)-GGPESGASLRHYYNWLTRQRY-NH2.C18DA-gGlu-gGlu-gGlu-OEG-OEG(1,2)] | 12.5 nM | 0.07 nM | 4.24 nM | 0.08 nM | 0.64 nM | – | – | – | – | – | – | –
H-Y[Aib]EGTFTSDYSI[Aib]LEKQAQ[Aib]AFVQWLIK([AEEA-AEEA-Glu-Glu-Glu-Glu-C18 diacid])GGPEEGASLRHYYNWLTRQRY-NH2 [Compound 177, Y-Aib-E-G-T-F-T-S-D-Y-S-I-Aib-L-E-K-Q-A-Q-Aib-A-F-V-Q-W-L-I-K(1,3)-GGPEEGASLRHYYNWLTRQRY-NH2.C18DA-E-E-E-E-OEG-OEG(1,2)] | 18.7 nM | 0.16 nM | – | 0.28 nM | – | 115 nM | – | – | – | – | – | –
H-Y[Aib]EGTFTSDYSI[Aib]LEKQAQ[Aib]AFVEWLIK([Ahx-γGlu-γGlu-γGlu-γGlu-γGlu-C18 diacid])GGPSSGASLRHYYNWLTRQRY-NH2 [Compound 260, Y-Aib-E-G-T-F-T-S-D-Y-S-I-Aib-L-E-K-Q-A-Q-Aib-A-F-V-E-W-L-I-K(1,3)-GGPSSGASLRHYYNWLTRQRY-NH2.C18DA-gGlu-gGlu-gGlu-gGlu-gGlu-AHX(1,2)] | 26.4 nM | 0.13 nM | – | 0.31 nM | – | – | – | – | – | – | – | –
H-Y[Aib]EGTFTSDYSI[Aib]LEKQAQ[Aib]AFIEWLIK([γGlu-γGlu-γGlu-γGlu-C20 diacid])GGPSEGASLRHYYNWLTRQRY-NH2 [Compound 283, Y-Aib-E-G-T-F-T-S-D-Y-S-I-Aib-L-E-K-Q-A-Q-Aib-A-F-I-E-W-L-I-K(1,3)-GGPSEGASLRHYYNWLTRQRY-NH2.C20DA-gGlu-gGlu-gGlu-gGlu(1,2)] | 14.7 nM | 0.13 nM | 3.86 nM | 0.23 nM | 1.86 nM | – | – | – | – | – | – | –
H-Y[Aib]EGTFTSDYSI[Aib]LEKQAQ[Aib]AFVEWLIK([εLys-γGlu-γGlu-γGlu-γGlu-γGlu-γGlu-C20 diacid])GGPSSGASLLHYYNWLTRQRY-NH2 [Compound 210, Y-Aib-E-G-T-F-T-S-D-Y-S-I-Aib-L-E-K-Q-A-Q-Aib-A-F-V-E-W-L-I-K(1,3)-GGPSSGASLLHYYNWLTRQRY-NH2.C20DA-gGlu-gGlu-gGlu-gGlu-gGlu-gGlu-eLys(1,2)] | 54.1 nM | 0.19 nM | – | 0.28 nM | – | – | – | – | – | – | – | –
Y[Aib]EGTFTSDYSI[Aib]LEKQAQ[Aib]AFVQWLIK([εLys-γGlu-γGlu-γGlu-γGlu-γGlu-C20 diacid])GGPSEPASLRHYYNWLTRQRY-NH2 [Compound 169] | – | – | – | – | – | – | 0.26 nM | 3.15 nM | 0.13 nM | 7.3 nM | 10.3 nM | 50.3 nM
B1 | – | – | – | – | – | – | 0.24 nM | 1.15 nM | 0.09 nM | 0.98 nM | 19.2 nM | 33.2 nM
Y[Aib]EGTFTSDYSI[Aib]LEKQAQ[Aib]EFVEWLIK([AEEA-AEEA-γGlu-γGlu-γGlu-C18 diacid])GGPSSGASLRHYYNWLTRQRY-NH2 [Compound 171] | – | – | – | – | – | – | 0.2 nM | 0.83 nM | 0.27 nM | 4.17 nM | 7.51 nM | 30.4 nM
B2 | – | – | – | – | – | – | 0.21 nM | 1.83 nM | 0.07 nM | 2 nM | 20.2 nM | 86.1 nM
Y[Aib]EGTFTSDYSI[Aib]LEKQAQ[Aib]EFVEWLIK([εLys-γGlu-γGlu-γGlu-γGlu-γGlu-γGlu-γGlu-C20 diacid])GGPSSGASLRHYYNWLTRQRY-NH2 [Compound 88] | – | – | – | – | – | – | 0.53 nM | 1.58 nM | 1.12 nM | 7.18 nM | 20.4 nM | 45.4 nM
B3 | – | – | – | – | – | – | 1.01 nM | 1.7 nM | 0.25 nM | 8.9 nM | 14.8 nM | 42.4 nM
B4 | – | – | – | – | – | – | 1.03 nM | 6.75 nM | 0.3 nM | 5.39 nM | 18.4 nM | 71.9 nM
B5 | – | – | – | – | – | – | 0.21 nM | 1.72 nM | 0.17 nM | 4.16 nM | 16.2 nM | 53.1 nM
Y[Aib]EGTFTSDYSI[Aib]LEKQAQ[Aib]AFVQWLIK([εLys-γGlu-γGlu-γGlu-Glu-γGlu-γGlu-γGlu-C20 diacid])GGPSSGASLRHYYNWLTRQRY-NH2 [Compound 92] | – | – | – | – | – | – | 0.33 nM | 1.64 nM | 0.08 nM | 3.16 nM | 7.48 nM | 27.9 nM
B6 | – | – | – | – | – | – | 0.14 nM | 2.35 nM | 0.22 nM | 8.97 nM | 15.3 nM | 85.7 nM
B7 | – | – | – | – | – | – | 0.22 nM | 1.04 nM | 0.09 nM | 1.98 nM | 12.3 nM | 40.2 nM
B8 | – | – | – | – | – | – | 0.13 nM | 0.75 nM | 0.13 nM | 2.76 nM | 20.6 nM | 56.9 nM
B9 | – | – | – | – | – | – | 0.19 nM | 1.07 nM | 0.14 nM | 2.12 nM | 15.5 nM | 44.8 nM
